Data on 21 variants can be found in the RNAGym collection of RNA variant scans (doi:10.1073/pnas.2313332121).

The chains are these.
B1: TPR t1 (parent)
chain: GACCAAUCUGCCCUCAGAGCUCGAGAACAUCUUCGGAUGCAGAGGAGGCAGGCUUCGGUGGCGCGAUAGCGCCAACGUCCUCAACCUCCAAUGCAUCCCACCACAUGAUGAUGCCUGAAGAGCCUUGGUUUUUUG

This data set covers variants of B1. As to the kind of experiment: polymerase ribozyme fitness, log enrichment relative to wild type (log ratio); higher = more active; in vitro selection for triplet polymerase activity. A digest of the protocol:
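A single round of triplicate in vitro selection, including frozen incubation at −7 °C, was applied to PCR-built, transcribed mutant libraries of each subunit of a heterodimeric triplet polymerase ribozyme. Illumina sequencing of input and output libraries retained genotypes with ≥10 input reads and ≥1 read per output. Fitness is the base-2 logarithm of genotype enrichment divided by wild-type enrichment, from inverse-variance-weighted replicate averages.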
With GACCAAUCUGCCCUCAGAGCUCGAGAACAUCUUCGGAUACAGAGGAGGCAGGCUUCGGUGGCGCGAUAGCACCAACGUCCUCAACAUCCAAUGCAUCCCCCCACAUGAUGAUGCCUGAAGAGCCUUGGUUUUUUG, the “polymerase ribozyme fitness (log ratio)” value is -4.
GACCAAUCUACCCUCAGACCUCGAGAACAUCUUCGGAUGCAGAGGAGGCAGGCUUCGGUGGCCCGAUAGCGCCAACGUCCUCAACCUCCAAUGCAUCCCACCACAUGAUGAGGCCUGAAGAGCCUUGGUUUUGUG: the “polymerase ribozyme fitness (log ratio)” value is -5.97.
GACCAAUCUGCCCUCAGAGCUCGAGAACAUCUUCGGUUGCAGAGGAGGCAGGCAUCGGUGGCGCGAUAGCGCCAACGUCCUCAUCCUCCAAUGCAUCCCACCACAUGAUGAUGCCUGAAGAGCCUUGGUUUUUUG: the “polymerase ribozyme fitness (log ratio)” value is -0.554.
In the case of GAUCAAUAUGCCCUCAGAGCUCGAAAACAUGUUCGGAUGCAGAGGAGGCAGGCUUCGGUGGCGCGAUAGGGCCAACGUCCUCAACCUCCAAAGAAUCGGACCACAUGAUGAUGCCUUAAGAGCCUUGGUUUUUUG it was -6.98; in that of GACCAAUCUGCCUUCAGAGCUCGAGAACAUCUUCGGAUGCAGAGGAGGCAGGCUUCGCUGGCGCGAUAGCGCCAACGUCCUCAGCCUCCAAUGCAUCCCACCACAUGAUGAUGCCUGAAGAGCCUUGGUUUUUUG, -0.641.
As for GACCAAUCUGCCCUCAGAGCUCGAGUACAUCUUCGGAUGCAGAGGAGGCAGGCUUCGGUGGCGCGAUAGCGCCAACGUCCUCAACCUCCAAUGCAACCCACCACAUGAUGAUGUCUAAAGAGCCUUGGUUUUUUG, the figure is -5.98; as for GACCAAUCUGCCCUCAGAGCUCGAGAACAUCUUCGGAUGCAGAGGAGGCAGGCUUCGGUGGCGCGAUAGCGCCAACGUCCUCAACCUCCAAUCCAUCCCACCACAUGAUGAUGCCUGAAGAACCUUGGUUUUUUG, -0.79; as for GACCAAUCUGCCCUCAGAGCUCGAGAACAUCUUCGGAUGCAGAGGAGGCAGGCUUCGGUGGCGUGAUAGCGCCAACGUCCUCCACCUCCAAUGCAUCCCACCACAUGAUGAUGCCUGAAGAGCCUUGGUUUUUUG, -0.261.
In the case of GACCAAUCUACCCUCAGAGCUCGAGAACAUCUUCGGAUGCAGAGGAGGCAGGCUUCGGUGGCGCGAUAGCGCCAACGUCCUCAACCUCCAAUACAUCCCACCACAUGAUGAUGCCUGAAGAGCCUUGGUUUUUUG it was 0.205; in that of GACCAAUCUGCCCACAGAGCUCGAGAACAUCUUCGGAUGCAGAGGAGGCAGGCUUCGGUGGCGCGAUAGCGCCAACGUCCUCAACCUCCAAUGCAUCCCACCACAUGAUGAUGCCUGAAGAGUCUUAGUUUUUUG, -0.509.
Consider GACCAAUCUCCACUCAGCGCUCGAGAACAUCUUCGGAUGCAUAGGAGGCAGGCUUCGGUGGCGCGAUAGCACCAACGUCCUCAACCUCCAAUGCAUCCCACCACAUGAUGAUGCCUUAAGAUCCUUGGUGUUUUG, for which the “polymerase ribozyme fitness (log ratio)” value is -3.23.
As for GACCAAUCUGCACGCAAAGAUCGAGAACAUCUUCGGAUGCAGAGGAGGCAGGCUUCGGUGGCGCGAUAGCGCCAACGUCCUCAACCUCCAAUGAAUCCCACCACAUGAUGAUGCCUGAAGAGCCUUGGUUUUUUG, the figure is -3.13; as for GACCAAUCUGCCCUCAGAGCUCGAGAACAUCCUCGGAUGCAGAGGAGGCAGGCUUCGGUGGCGCGAUAGGGCCCACGUCCUCAACCUCCAAUGCAUCCCACCACAUGAUGAUGCCUGAAGAGCCUUGGUUUUUUG, -5.82; as for GACCAAUCUGCCCUCAGAGCUCGAGAACAUCUUCGGAUGCAGAGGAGGCAGGCUUCGGUGGAGCGAUAGCGCCAACGUCCUCAACCCCCAAUGCAUCCCACCACAUGAUGAUGCCUGAAGAGCCUUGGUUUUUUG, -0.344.
For GACCAAUCUCCCCACAGAGCUCGAGAACAUCUUCGGAUGCAGAGGAGACAGGCUUCGGUGGCGCGAUAGCGCCAACGUCCUCAACCUCCAAUGCAUCCCACCACAUGAUAAUGCCUGAAGAGCCUUGGUUUUUUG, the “polymerase ribozyme fitness (log ratio)” value is -3.91.
In the case of GACCAAUCUGCCCUCAGAGCUCGAGAACAUCUUCGGAUGCAGAGGAGGCAGGCUUCGGUGGCGCGAUAGCGCCAACGUCCUCAACCUCCAAUGCAUCCCACCACAUGAUGAUGCCUGAGAAGCCUUGGUUUUUUG it was 1.35; in that of GACCAAUCUGCACUCAGAGCUCGAGAGCAUCUUGGGAUGCAGAGGAGGCAGGCUUCGGUGUCGCGAUAGCGCCAACGUCCUCAACCUCCAAUGCAUCCCACCACAUGAUGAUGCCUGCAGAGGCUUGGUUUUUUG, -8.42; in that of GACCAAUCUGCCCUCAAAGGUCGAGAACAUCUUCGGAUGCAGAGGAGGCAGGCUUCGGUGGCGCGAUAGCGCCAACGUCCUCAACCUCCAAUGCAUCCCACCACAUGAUGAUGCCUGAAGGGCCUUGGUUUUUUG, -4.27.
As for GACCAAUCUGCCCUCAGAGCUCGAGAACAUCUUCGGAUGCAGAGGAGGCAGGCUUCGGUGGCGCGAUAGCCCCAACGUCCUCAACCUCCAAUGCAUCCCACCACAUGAUGAUGCCUCAAGAGCCUUGGUUUUUUG, the figure is -4.7; as for GACCAAUAUGCACUCAGAGCUCGAGAACAUCUUCGGAUGCAGAGGAGGCAGGCUUCGGUGGCGCGAUAGCGCCAACGUCCUCAAUCUCCAAUGCAUCCCACCACAUGAUGAUGCCUGAAGAGCCUUGGUUUUUUG, -0.437.
Turning to GACCAAUCUGCCCUCAGAGCUCGAGAACAUCUUCGGAUGCAGAGGAGGCAUGCUUCGGUGGCACGAUAGCGCCAACGUCCUCAACCUCCAAUGCAUCCCACCACAUGAUGAUGCCUUAAGAGCCUUGGUUUUUUG, the “polymerase ribozyme fitness (log ratio)” value was -5.99.
